Source: article PMC3905869

Tests used:
[1] = biological target: T1, VirB delta C (Shigella flexneri, UniProt P0A247 1-250); test: competition
T1 sequence: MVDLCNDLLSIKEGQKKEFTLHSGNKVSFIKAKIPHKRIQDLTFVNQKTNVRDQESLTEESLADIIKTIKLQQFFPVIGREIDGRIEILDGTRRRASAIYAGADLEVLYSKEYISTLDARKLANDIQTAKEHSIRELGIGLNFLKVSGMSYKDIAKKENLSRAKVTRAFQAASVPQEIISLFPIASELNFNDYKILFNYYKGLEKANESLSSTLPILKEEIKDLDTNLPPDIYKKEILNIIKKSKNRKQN

[2] = biological target: T1, VirB delta C; test: EMSA with self-competition
[3] = biological target: T2, VirB FL (Shigella flexneri, UniProt P0A247 1-309); test: EMSA with self-competition
T2 sequence: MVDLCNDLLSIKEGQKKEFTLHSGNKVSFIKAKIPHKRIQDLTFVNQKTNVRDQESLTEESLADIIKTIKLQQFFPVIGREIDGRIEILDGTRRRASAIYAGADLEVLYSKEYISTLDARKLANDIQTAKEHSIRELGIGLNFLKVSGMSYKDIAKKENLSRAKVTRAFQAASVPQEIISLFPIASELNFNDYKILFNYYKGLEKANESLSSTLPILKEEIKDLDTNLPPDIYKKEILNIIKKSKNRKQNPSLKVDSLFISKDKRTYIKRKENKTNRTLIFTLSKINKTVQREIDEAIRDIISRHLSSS

[4] = biological target: T3, VirB delta N (Shigella flexneri, UniProt P0A247 129-309); test: EMSA with self-competition
T3 sequence: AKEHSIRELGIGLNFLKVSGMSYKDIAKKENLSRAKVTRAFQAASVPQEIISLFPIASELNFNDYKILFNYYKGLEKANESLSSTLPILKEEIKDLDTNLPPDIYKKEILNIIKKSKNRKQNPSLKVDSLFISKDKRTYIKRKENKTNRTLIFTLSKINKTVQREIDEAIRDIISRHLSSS

[5] = biological target: T2, VirB FL; test: fluorescence anisotropy
[6] = biological target: T4, VirB core (HTH domain) (Shigella flexneri, UniProt P0A247 129-250); test: fluorescence anisotropy
T4 sequence: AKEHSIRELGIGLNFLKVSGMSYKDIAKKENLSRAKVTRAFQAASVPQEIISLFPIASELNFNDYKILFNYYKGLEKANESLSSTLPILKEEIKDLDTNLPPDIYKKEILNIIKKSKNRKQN

[7] = biological target: T1, VirB delta C; test: fluorescence anisotropy
[8] = biological target: T3, VirB delta N; test: fluorescence anisotropy

B1: icsB-mut (dsDNA)
DNA 1: AAACTCGTTTCATCGCTGGGCCCCAC
DNA 2: GTGGGGCCCAGCGATGAAACGAGTTT
[1]
  binding result: no binding

B2: icsB-wt (dsDNA)
DNA 1: AAACTCGTTTCATCATGAAATCCCAC
DNA 2: GTGGGATTTCATGATGAAACGAGTTT
[2]
  binding result: binds
[3]
  binding result: binds
[4]
  binding result: binds

B3: FAM-icsB-wt-50bp (dsDNA)
DNA 1: CTCGTTTCATCATGAAATCCCACAAGATAAAGTGCCTGATGTATCAGGCT
DNA 2: AGCCTGATACATCAGGCACTTTATCTTGTGGGATTTCATGATGAAACGAG
[5]
  Kd: 0.011 ± 0.0003 µM
[6]
  Kd: 0.016 ± 0.003 µM
[7]
  Kd: 0.139 ± 0.015 µM
[8]
  Kd: 0.012 ± 0.0003 µM
